# From patent US20040132121A1, “Method of identifying antibacterial compounds” (priority 2000, published 2004)
# Values joined by “and” are separate entries in the source; they are usually repeats but may differ in a detail not shown here. Equal entries are not always repeated.
# B1: peptide 112d … (UmuC1, native flanking sequences) (peptide)
# peptide: EAQLDLFDS
# modifications: not checked
# Molecular target: Escherichia coli β subunit of DNA Polymerase III (β protein) (Escherichia coli), P0A988
# Sequence (P0A988 whole entry): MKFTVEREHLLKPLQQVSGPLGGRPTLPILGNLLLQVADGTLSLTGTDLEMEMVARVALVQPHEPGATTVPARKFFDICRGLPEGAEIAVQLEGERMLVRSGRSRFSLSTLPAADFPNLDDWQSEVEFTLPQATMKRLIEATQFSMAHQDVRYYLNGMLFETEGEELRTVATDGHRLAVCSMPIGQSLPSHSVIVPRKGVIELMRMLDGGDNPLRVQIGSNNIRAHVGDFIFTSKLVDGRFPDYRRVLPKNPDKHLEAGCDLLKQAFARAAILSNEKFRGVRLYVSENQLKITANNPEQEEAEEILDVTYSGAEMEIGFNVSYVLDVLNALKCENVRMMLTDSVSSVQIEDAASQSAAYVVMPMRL
binder,measurement,value
B1,IC50,1000 nM and 3600 nM
